What was measured:
[1] = molecular target: epidermal growth factor receptor (EGFR) (human), P00533; test: cell-based or functional assay
[2] = molecular target: epidermal growth factor receptor (EGFR) (human), P00533; test: flow cytometry, equilibrium binding on EGFR-expressing A431 cells (apparent KD)

B1: Ranpirnase-DEN-scFv (protein)
chain: QDWLTFQKKHITNTRDVDCDNIMSTNLFHCKDKNTFIYSRPEPVKAICKGIIASKNVLTTSEFYLSDCNVTSRPCKYKLKKSTNKFCVTCENQAPVHFVGVGSCMVDRGWGNGCGLFGKGGIVEVQLVESGGGLVQPGGSLRLSCAASGFSLTNYGVHWVRQAPGKGLEWLGVIWSGGNTDYNTPFTSRFTISRDNSKNTLYLQMNSLRAEDTAVYYCARALTYYDYEFAYWGQGTTVTVSSGGGGSGGGGSGGGGSDIQLTQSPSFLSASVGDRVTITCRASQSIGTNIHWYQQKPGKAPKLLIKYASESISGVPSRFSGSGSGTEFTLTISSLQPEDFATYYCQQNNNWPTTFGAGTKLEIKR
modifications: not checked
B1 gave an IC50 (nM), cell viability, A431 [1] of 38 nM, an IC50 (nM), cell viability, HNO97 [1] of 411 nM and an IC50 (nM), cell viability, HNO211 [1] of 18 nM. The IC50 (nM), cell viability, HNO410 [1] was 308 nM, the fold increase in potency compared to Ranpirnase-GS-scFv, HNO211 cells [1] was 79 fold and the Kd [2] was 11.2 nM.

Source: patent US20170260274A1
